Results taken from patent US20240344028A1, “Serum-free media for producing adipocytes for animal consumption” (Mosa Meat B.V., priority 2021, published 2024).

System: Adipogenic progenitor cells
Test: 2D adipogenic differentiation with DMAD components removed or at changed concentration
Format: cell-based, bovine
Conditions: single component removed from DMAD
Method: At 90% confluence, proliferated MSCs were trypsinized and seeded in a 96-well collagen coated cell culture plate at 30,000 cells/cm^2 in SF-PM. After 24 hours, adipogenesis was induced by changing SF-PM to DMAD (the serum-free differentiation medium as depicted in Example 1), which was maintained on the cells for a period of 12 days with media changes every 3-4 days. As a control differentiation medium (ctrl), DMEM/F12 with 3% FBS was supplemented with 4 conventional adipogenic inducers (IBMX (Sigma Aldrich-15879; 0.5 mM), dexamethasone (Sigma Aldrich-D4902; 10 μM), rosiglitazone (Sigma Aldrich-R2408; 5 μM) and insulin (Peprotech-10-365; 10 μM)). All 4 inducers were used for the first 3 days of culture and only insulin and rosiglitazone were used for the remaining 9 days.
Cells were fixed on days 6 and 12 with 4% PFA for 20 minutes at room temperature and washed twice with PBS. Cells were then stained with Hoechst (ThermoFisher 493/503, 1:2000) and BODIPY (Sigma Aldrich 345880, 1:1000) in PBS for 30 minutes. Adipogenic differentiation was quantified using the ImageXPress Pico High Content Analyser (HCA; Molecular devices). The parameters measured were total area of lipid, lipid droplet average area and percentage of positive cells. […]

B1: BMP4: Recombinant Human BMP-4 (E. coli derived), 120-05ET from Peprotech (protein, UniProt P12644 293-408, looked up)
Bone morphogenetic protein 4: SPKHHSQRARKKNKNCRRHSLYVDFSDVGWNDWIVAPPGYQAFYCHGDCPFPLADHLNSTNHAIVQTLVNSVNSSIPKACCVPTELSAISMLYLDEYDKVVLKNYQEMVVEGCGCR
With B1 the “effect of removing the component from DMAD on percentage of positive cells and total lipid area” value was “significantly decreased differentiation”.
